The labels stand for the following.
T1: human CD22-His protein (Sino Biological Inc.) (human, UniProt P20273 20-687)
T1 construct: Bought protein coated on the ELISA plate (100 ng/well); not shown: His tag
T1 sequence (looked up): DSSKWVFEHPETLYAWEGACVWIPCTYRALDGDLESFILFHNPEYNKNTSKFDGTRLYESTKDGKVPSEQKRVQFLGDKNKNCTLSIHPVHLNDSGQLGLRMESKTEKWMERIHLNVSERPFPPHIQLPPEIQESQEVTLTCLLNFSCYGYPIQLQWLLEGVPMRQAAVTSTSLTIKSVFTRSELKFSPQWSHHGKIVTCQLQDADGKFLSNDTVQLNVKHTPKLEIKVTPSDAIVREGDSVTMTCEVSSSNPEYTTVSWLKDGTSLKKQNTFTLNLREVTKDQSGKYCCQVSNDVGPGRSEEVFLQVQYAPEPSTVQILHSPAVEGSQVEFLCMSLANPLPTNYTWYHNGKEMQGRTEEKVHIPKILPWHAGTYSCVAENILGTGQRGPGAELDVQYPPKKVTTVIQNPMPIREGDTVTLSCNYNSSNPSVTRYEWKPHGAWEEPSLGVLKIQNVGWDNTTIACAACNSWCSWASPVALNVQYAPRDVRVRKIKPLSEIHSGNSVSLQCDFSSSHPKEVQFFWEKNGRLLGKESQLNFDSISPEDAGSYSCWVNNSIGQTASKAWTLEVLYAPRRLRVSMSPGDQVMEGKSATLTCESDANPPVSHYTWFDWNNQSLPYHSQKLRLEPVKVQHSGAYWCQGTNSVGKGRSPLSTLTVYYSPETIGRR

B1: recombinant anti-CD22 scFv-Cκ-HA fusion protein 2-3-14 (scFv)
scFv: LTQPSSVSANPGETVKITCSGSNNTYGWYQQKAPGSAPVTVIYDNTNRPSDIPSRFSGSKSGSTNTLTITGVQAEDEAVYFCGSRDSTYVGIFGAGTTLTVLGGGGSGGGGSGGGGSAVTLDESGGGLQTPGGGLSLVCKASGFSFSDYGMGWVRQAPGKGLEFVASISNTGSYTDYGAAVKGRATISRDNGQSTLRLQLNNLRAEDTGTYFCAKSAYGGSYGSSSIDAWGHGTEVIVSSGGGGSGGGGSGGGGSRTVAAPSVFIFPPSDEQLKSGTASVVCLLNNFYPREAKVQWKVDNALQSGNSQESVTEQDSKDSTYSLSSTLTLSKADYEKHKVYACEVTHQGLSSPVTKSFNRGESGGAYPYDVPDYAS
notes: The text prints the clone name 2-3-14 as 'Feb; 3, 2014' in several paragraphs (date conversion artefact); also called Feb; 3, 2014; 2-3-14 scFv-Cκ-HA
B2: recombinant anti-CD22 scFv-Cκ-HA fusion protein CI4-47 (scFv)
scFv: LTQPSSVSANPGETVKITCSGGSGGYGWYQQKSPGSAPVSLIYDNDQRPSDIPSRFSGSKSGSTGTLTITGVQADDEAVYYCGSYDSSYVGIFGAGTTLTVLGGGGSGGGGSGGGGSAVTLDESGGGLQTPGGALSLVCKASGFTFSNYCMQWVRQAPGKGLEWVAGIGSSGTGTYYGSAVRGRATISRDNGQSTVRLQLNNLRAEDTGTYYCARDYGSDSGCGWGIYAGEIDAWGHGTEVIVSSGGGGSGGGGSGGGGSRTVAAPSVFIFPPSDEQLKSGTASVVCLLNNFYPREAKVQWKVDNALQSGNSQESVTEQDSKDSTYSLSSTLTLSKADYEKHKVYACEVTHQGLSSPVTKSFNRGESGGAYPYDVPDYAS
notes: Chicken-derived scFv fused to a human constant kappa region and an HA tag; expressed in HEK293F cells, purified on KappaSelect; also called CI4-47 scFv-Cκ-HA
B3: anti-CD22 IgG protein CI4-47_8-1_H1-2-37 (antibody, V domains shown)
VH: EVQLLESGGGLVQPGGSLRLSCAASGFTFSRHGMYWVRQAPGKGLEWVSGIGSSGTGTYYGSAVRGRFTISRDNSKNTLYLQMNSLRAEDTAVYYCARDYGSDSGVGWGIYAGEIDAWGQGTLVTVSS
VL: LTQPPSVSVSPGQTARITCSGGSGGYGWYQQKPGSAPVSVIYDNDQRPSGIPERFSGSSSGTTVTLTISGVQAEDEADYYCGSYDSSYVGIFGGGTKLTVLR
B4: anti-CD22 IgG protein CI4-47_8-1_H1-2-1 (antibody, V domains shown)
VH: EVQLLESGGGLVQPGGSLRLSCAASGFTFSKHGHYWVRQAPGKGLEWVSGIGSSGTGTYYGSAVRGRFTISRDNSKNTLYLQMNSLRAEDTAVYYCARDYGSDSGIGWGIYAGEIDAWGQGTLVTVSS
VL: LTQPPSVSVSPGQTARITCSGGSGGYGWYQQKPGSAPVSVIYDNDQRPSGIPERFSGSSSGTTVTLTISGVQAEDEADYYCGSYDSSYVGIFGGGTKLTVLR
B5: anti-CD22 IgG protein CI4-47_8-1 (antibody, V domains shown)
VH: EVQLLESGGGLVQPGGSLRLSCAASGFTFSNYCMSWVRQAPGKGLEWVSGIGSSGTGTYYGSAVRGRFTISRDNSKNTLYLQMNSLRAEDTAVYYCARDYGSDSGCGWGIYAGEIDAWGQGTLVTVSS
VL: LTQPPSVSVSPGQTARITCSGGSGGYGWYQQKPGSAPVSVIYDNDQRPSGIPERFSGSSSGTTVTLTISGVQAEDEADYYCGSYDSSYVGIFGGGTKLTVLR
B6: anti-CD22 IgG protein 2-3-14 (antibody, V domains shown)
VH: AVTLDESGGGLQTPGGGLSLVCKASGFSFSDYGMGWVRQAPGKGLEFVASISNTGSYTDYGAAVKGRATISRDNGQSTLRLQLNNLRAEDTGTYFCAKSAYGGSYGSSSIDAWGHGTEVIVSS
VL: LTQPSSVSANPGETVKITCSGSNNTYGWYQQKAPGSAPVTVIYDNTNRPSDIPSRFSGSKSGSTNTLTITGVQAEDEAVYFCGSRDSTYVGIFGAGTTLTVLR
notes: also called Feb; 3, 2014
B7: anti-CD22 IgG protein 2-3-14_H1-24 (antibody, V domains shown)
VH: AVTLDESGGGLQTPGGGLSLVCKASGFAFGRSSMGWVRQAPGKGLEFVASISNTGSYTDYGAAVKGRATISRDNGQSTLRLQLNNLRAEDTGTYFCAKSAYGGSYGSSSIDAWGHGTEVIVSS
VL: LTQPSSVSANPGETVKITCSGSNNTYGWYQQKAPGSAPVTVIYDNTNRPSDIPSRFSGSKSGSTNTLTITGVQAEDEAVYFCGSRDSTYVGIFGAGTTLTVLR
B8: anti-CD22 IgG protein 2-3-14_H2-40 (antibody, V domains shown)
VH: AVTLDESGGGLQTPGGGLSLVCKASGFSFSDYGMGWVRQAPGKGLEFVAFLGSSSSYTDYGAAVKGRATISRDNGQSTLRLQLNNLRAEDTGTYFCAKSAYGGSYGSSSIDAWGHGTEVIVSS
VL: LTQPSSVSANPGETVKITCSGSNNTYGWYQQKAPGSAPVTVIYDNTNRPSDIPSRFSGSKSGSTNTLTITGVQAEDEAVYFCGSRDSTYVGIFGAGTTLTVLR

Consider eight molecules from patent US20260176354A1, “ANTIBODY BINDING TO CD22, AND BISPECIFIC ANTIBODY, CHIMERIC ANTIGEN RECEPTOR AND ANTIBODY-DRUG CONJUGATE COMPRISING SAME, AND USE THEREOF” (THE ASAN FOUNDATION, priority 2022, published 2026).

The target in the first assay is T1, human CD22-His protein (Sino Biological …). Kind of assay: ELISA, human CD22-His coated, anti-human Cκ-HRP detection. The protocol:
Microtiter plates (Corning Inc., MA, USA) were coated overnight at 4° C. with human CD22-His protein (100 ng/well, Sino Biological Inc., Beijing, China). The wells were blocked for 1 hour at 37° C. with 150 μl of 3% BSA (w/v) in PBS, and serial dilutions of the anti-CD22 scFv-Cκ-HA fusion protein, prepared in 3% BSA in PBS, were added to each well. After incubation for 1.5 hours at 37° C., the plates were washed three times with PBST (PBS containing 0.05% Tween-20), followed by incubation for 1 hour at 37° C. with an HRP-conjugated anti-human CK antibody (Millipore, CA, USA). The plates were washed three times with PBST, and the amount of bound antibody was determined by adding 2,2′-azino-bis(3-ethylbenzothiazoline-6-sulfonic acid) (Thermo Fisher Scientific Inc., MA, USA). The resulting OD₄₀₅ was measured using a microplate spectrophotometer.
Consider B1, for which the binding result is recorded as “binds”.
Same read-out and setting: as for B2, the entry is “binds”.

A further assay has the same target. Kind of assay: ELISA, human CD22-His coated, anti-human IgG Fc-HRP detection. The protocol: Microtiter plates (Corning Inc., MA, USA) were coated overnight at 4° C. with human CD22-His protein (100 ng/well, Sino Biological Inc., Beijing, China). The wells were blocked for 1 hour at 37° C. with 150 μl of 3% BSA (w/v) in PBS, after which serial dilutions of the IgG protein prepared in 3% BSA in PBS were added to each well. After incubation for 1.5 hours at 37° C., the plates were washed three times with PBST (PBS containing 0.05% Tween-20), followed by incubation for 1 hour at 37° C. with an HRP-conjugated anti-human IgG (Fc-specific) antibody (Thermo Fisher Scientific, USA). The plates were washed three times with PBST, and the amount of bound antibody was determined by adding 2,2′-azino-bis(3-ethylbenzothiazoline-6-sulfonic acid) (Thermo Fisher Scientific Inc., MA, USA). The resulting OD₄₀₅ was measured using a microplate spectrophotometer.
(In general: In an ELISA, binding on a coated surface is turned into a signal by an enzyme label.)
As for B3, the binding result was “binds”.
Still for that read-out and setting: as for B4, the entry is “binds”.
Still for that read-out and setting: the entry for B5 is “binds”.
The same measure, in the same setting: the entry for B6 is “binds”; for B7 it is “binds”; for B8 it is “binds”.
